Reference: patent publication US20240043507A1 (RQ BIOTECHNOLOGY, published 2024)

What was measured:
[1] = target: T1, SARS-CoV-2 receptor binding domain (RBD), native (SARS-CoV-2, UniProt P0DTC2 330-532); assay: BLI, RBD/Fab; de-glycosylated Fab 88
T1 construct: range 330-532

[2] = target: T1, SARS-CoV-2 receptor binding domain …; assay: BLI, RBD/Fab; glycosylated Fab 88
[3] = target: T1, SARS-CoV-2 receptor binding domain …; assay: method and antigen not stated there
[4] = target: T1, SARS-CoV-2 receptor binding domain …; assay: BLI, RBD/Fab; de-glycosylated Fab 316

B1: Fab 88, de-glycosylated (Fab, V domains shown)
VH: QLQLQESGPGLVKPSQTLSLTCTVSGGSISSGSYNWTWIRQPAGKGLEWIGRIYNSGSTNYNPSLKSRVTISVDTSKNQLSLKVRSVTAADTAVYYCARHCSGGTCYPKYYYGMDVWGQGTTVTVSS
VL: QSALTQPPSVSEAPRQRVTISCSGSSSNIGNNAVNWYQQFPGKAPKLLIYYDDLLPSGVSDRFSGSKSGTSASLAISGVQSEDEADYYCAAWDDSLNVVVFGGGTKLTVL
With B1 the Kd [1] was 0.8 nM.

B2: Fab 88 (Fab, V domains shown)
VH: B1 VH
VL: B1 VL
notes: also called 88 Fab (glycosylated)
Work on B2 yielded a Kd [2] of 1.2 nM.

B3: mAb 45 (antibody, V domains shown)
VH: QVQLVESGGGVVQPGRSLRLSCAASGFTFSTYAMHWVRQAPGKGLEWVAVLSYDGSNKYYADSVKGRFTISRDNSKNTLYLQMNSLRAEDTAVYYCAKGGSYAYYYYMDVWGKGTTVTVSS
VL: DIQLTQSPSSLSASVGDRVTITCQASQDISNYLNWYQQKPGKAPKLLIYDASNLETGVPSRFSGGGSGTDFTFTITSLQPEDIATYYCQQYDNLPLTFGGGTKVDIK
notes: also called antibody 45
In the case of B3, the Kd [3] is reported as 0.018 µg/mL.

B4: Fab 316, de-glycosylated (Fab, V domains shown)
VH: not shown
VL: QAVLTQPPSASGSPGQSVTISCTGTSSDVGGYNYVSWYQQHPGKAPKLMIYEVSKRPSGVPDRFSGSKSGNTASLTVSGLQAEDEADYYCSSYAGSNHWVFGGGTKLTVL
In the case of B4, the Kd [4] is reported as 1 nM.
